Results from US5726038.

Target: FXa/TF/FVIIa

## TFPI1-161 -117Gln (non-glycosylated variant of human tissue factor pathway inhibitor, first 161 amino acids, Asn117 replaced by Gln)
  secreted FXa/TF/FVIIa-dependent chromogenic TFPI- activity: 1 U/ml·OD
